Data: patent publication US20120009180A1 (Kyowa Kirin, published 2012)
Changes are numbered by the printed parent chain.

B1: anti-Aβ oligomer humanized antibody HV0LV0 (antibody, V domains shown)
VH: DVQLVESGGGVVQPGRSLRLSCAASGFTFSSFGMHWVRQAPGKGLQWMVYISSGSSTIYYADTVKGRFTISRDNSRSTLFLQMNSLRGEDTAVYYCARTGTRAYWGQGTLVTVSS
VL: DIVMTQSPLSLPVTPGEPASISCRSSQSIVHSNGNTYLEWYLQKPGQSPQLLIYKVSNRFSGVPDRFSGSGSGTDFTLKISRVEAEDVGVYYCFQGSHVPPTFGQGTKLEIK
notes: purified on Prosep vA; also called HV0LVV0; 4H5HV0 + 4H5LV0
B2: anti-Aβ oligomer humanized antibody HV6LV3 (antibody, V domains shown)
VH: B1 VH with Q46E, M48V, V49A, S77N, V93M, R98G
VL: B1 VL with I2V, P15L, Q50K
B3: anti-Aβ oligomer humanized antibody HV5aLV1b (antibody, V domains shown)
VH: B1 VH with Q46E, M48V, V49A, V93M, R98G
VL: B1 VL with P15L
B4: anti-Aβ oligomer humanized antibody HV5aLV0 (antibody, V domains shown)
VH: B1 VH with Q46E, M48V, V49A, V93M, R98G
VL: B1 VL
notes: also called HV5aVL0

Target: T1, Aβ oligomers prepared from Amyloid β-protein, Human 1-42 peptide (human, UniProt P05067 672-713)
T1 construct: domain: Amyloid β-protein 1-42; Oligomeric preparation (HFIP, DMSO, acetic acid solution pH 4.5, overnight at 4 °C); Amine-coupled to a CM5 chip; also called amyloid β oligomer
T1 sequence (P05067 672-713 limits assumed): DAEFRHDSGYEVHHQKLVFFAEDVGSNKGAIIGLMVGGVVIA
Experiment: SPR (Biacore T100), Aβ oligomers amine-coupled to CM5 chip, antibody injected, Bivalent Analyte model (kd1)
Protocol: (§1) All the following operations were performed using Biocore T100 (manufactured by GE Healthcare Bio-sciences). The Aβ oligomers obtained in (1) of Example 2 were immobilized to the CM5 sensor chip (GE Healthcare Bio-sciences) using the amine coupling method.
(§2) Onto the chip to which the Aβ oligomers were immobilized for measurement samples prepared to have 8 levels of density by diluting from 30 μg/mL by doubling dilution in a stepwise manner (HV0LV0, HV5aLV0, HV5aLV1b, HV5aLV3, HV6LV0, HV6LV1b, and HV6LV3) was sequentially injected and measured in the order from the lower density based on the automatic program of the multi-kinetics.
(§3) Using the analysis software attached to the device, Biacore T100 Evaluation software (manufactured by Biacore Life Science), analysis was carried out with the Bivalent Analyte model to calculate the binding rate constant ka and the dissociation rate constant kd of each of the antibody against Aβ oligomers.

Row | koff | Binder
1 | 0.0014 s⁻¹ | B1
2 | 0.00092 s⁻¹ | B2
3 | 0.00088 s⁻¹ | B3
4 | 0.00063 s⁻¹ | B4

Target: T1, Aβ oligomers prepared from Amyloid …
Experiment: SPR (Biacore T100), Aβ oligomers amine-coupled to CM5 chip, antibody injected, Bivalent Analyte model (kd1/ka1)
Protocol: as §1, §2, §3

Row | Kd | Binder
5 | 100 nM | B1
6 | 110 nM | B2
7 | 90 nM | B3
8 | 55 nM | B4

Target: T2, Aβ monomers prepared from Biotin-beta-Amyloid, Human 1-40 (human, UniProt P05067 672-711, biotin (Biotin-beta-Amyloid; position of the biotin not stated))
T2 construct: domain: beta-Amyloid 1-40; captured through biotin on an SA sensor chip; also called amyloid β protein monomer
T2 sequence (P05067 672-711 limits assumed): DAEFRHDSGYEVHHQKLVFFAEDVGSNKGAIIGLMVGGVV
Experiment: SPR (Biacore T100), biotin-Aβ1-40 monomers captured on SA chip, antibody injected
Protocol: In order to analyze the binding activity of the respective anti-Aβ oligomer humanized antibodies (HV0LV0, HV5aLV0, HV5aLV1b, HV5aLV3, HV6LV0, HV6LV1b, and HV6LV3) against Aβ monomers, the binding activity was measured in the same manner as in (1) of this Example. In addition, the binding activity of anti-Aβ antibody 6E10 (manufactured by CONVANCE) was measured as a control antibody.
The Aβ monomers obtained in (2) of Example (2) were immobilized to the SA sensor chip (manufactured by GE Healthcare Bio-sciences) by the biotin capturing method. Onto the chip to which the Aβ monomers were immobilized, samples for measurement, which were prepared to have 5 levels of density by diluting from 30 μg/mL by doubling dilution in a stepwise manner (HV0LV0, HV5aLV0, HV5aLV1b, HV5aLV3, HV6LV0, HV6LV1b, and HV6LV3) were sequentially injected and measured in the order from the lower density based on the automatic program of the multi-kinetics mode.

Row | binding result | Binder
9 | no binding | B1
10 | no binding | B2
11 | no binding | B3
12 | no binding | B4

Target: T1, Aβ oligomers prepared from Amyloid …
Experiment: SPR (Biacore T100), Aβ oligomers amine-coupled to CM5 chip, antibody injected, Bivalent Analyte model (ka1)
Protocol: as §1, §2, §3

Row | kon | Binder
13 | 14000 M⁻¹ s⁻¹ | B1
14 | 8200 M⁻¹ s⁻¹ | B2
15 | 9800 M⁻¹ s⁻¹ | B3
16 | 11000 M⁻¹ s⁻¹ | B4
